Reference: paper PMC11237882 (2024)

B1: HOMER1 (protein)
chain: MGEQPIFSTRAHVFQIDPNTKKNWVPTSKHAVTVSYFYDSTRNVYRIISLDGSKAIINSTITPNMTFTKTSQKFGQWADSRANTVYGLGFSSEHHLSKFAEKFQEFKEAARLA
B2: ENAH (protein)
chain: MSEQSICQARAAVMVYDDANKKWVPAGGSTGFSRVHIYHHTGNNTFRVVGRKIQDHQVVINCAIPKGLKYNQATQTFHQWRDARQVYGLNFGSKEDANVFASAMMHALEVLNS

How the values were obtained:
Assay in all cases: BLI (SUMO-peptide on tip, monomeric EVH1)
PCDH15 = molecular target: T1, PCDH15 (Homo sapiens (Human), UniProt Q96QU1)
T1 chain: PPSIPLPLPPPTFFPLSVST

PRRC2B = molecular target: T2, PRRC2B (Homo sapiens (Human), UniProt Q5JSZ5)
T2 chain: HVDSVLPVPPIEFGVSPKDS

FAT1 = molecular target: T3, FAT1 (Homo sapiens (Human), UniProt Q14517)
T3 chain: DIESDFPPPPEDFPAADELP

RARA = molecular target: T4, RARA (Homo sapiens (Human), UniProt P10276)
T4 chain: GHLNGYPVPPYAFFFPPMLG

APBB1IP_1 = molecular target: T5, APBB1IP_1 (Homo sapiens (Human), UniProt Q7Z5R6)
T5 chain: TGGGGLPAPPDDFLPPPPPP

DSCAM = molecular target: T6, DSCAM (Homo sapiens (Human), UniProt O60469)
T6 chain: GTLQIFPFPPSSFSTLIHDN

Binder | Kd (PCDH15) [µM] | Kd (PRRC2B) [µM] | Kd (FAT1) [µM] | Kd (RARA) [µM] | Kd (APBB1IP_1) [µM] | Kd (DSCAM) [µM]
B1 | > 150 | 100 | 98 | 100 | > 150 | 
B2 |  | > 150 |  | > 150 |  | > 150
